The target in this data set is T1, PUF4 RNA-binding domain (Saccharomyces cerevisiae, UniProt P25339 537-888).
T1 sequence: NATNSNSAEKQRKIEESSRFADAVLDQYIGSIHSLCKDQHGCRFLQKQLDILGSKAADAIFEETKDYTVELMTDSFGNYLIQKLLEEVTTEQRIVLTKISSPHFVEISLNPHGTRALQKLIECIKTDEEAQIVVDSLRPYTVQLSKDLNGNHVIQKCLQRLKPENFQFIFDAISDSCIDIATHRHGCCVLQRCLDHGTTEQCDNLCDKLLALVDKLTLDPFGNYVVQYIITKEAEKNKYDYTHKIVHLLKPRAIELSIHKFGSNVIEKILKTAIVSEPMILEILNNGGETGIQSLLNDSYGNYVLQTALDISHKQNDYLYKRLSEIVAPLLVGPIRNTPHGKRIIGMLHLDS
Briefly: Mg; RNA-MaP; 20 mM Na-HEPES pH 7.4, 30 mM KOAc, 0.75 mM MgCl2, 0.1% Tween-20, 5% glycerol, 0.1 mg/mL BSA, 2 mM DTT; 25 C; 0.0125-409.6 nM protein. As to conditions: tags: N-His6-TEV cleaved; C-SNAP kept, Cy3B-labelled; label: tethered on chip by stalled RNA polymerase.

Substitutions are numbered along the chain they refer to. Names and notes keep the numbering of the source.

B1: Ic_S4_P3E.1_K3.1_C3.1_H3.1_A3.1_[T5C]_F3.1_T3.1 (ssRNA)
RNA: UUUGACAACUGAUCGUUCUUUCUUGUACAUAUUCUUUCUCGAUCAGUUGUCUUU
In general, Kd refers to the constant that tells how readily two partners part at equilibrium. A low value points to higher affinity. B1 registered a Kd of 1.93 nM.

B2: Ic_S4_P3E.1_K3.1_C3.1_H3.1_A3.1_[A6C]_F3.1_T3.1 (ssRNA)
RNA: B1 RNA with C28U, A29C
Consider B2, for which binding was characterised by a dissociation constant (Kd) of 10.1 nM.

B3: Ib_S4_P4E.1_K4.1_C4.1_H4.1_[T1A]_[G2T]_A4.1_F4.1_T4.1 (ssRNA)
RNA: UUUGACAACUGAUCGUUCUUUCUAUUAUAUUAUUCUUUCUCGAUCAGUUGUCUUU
The molecule B3 had a Kd of 686 nM.

B4: Ib_S4_P4E.1_K4.1_C4.1_H4.1_[T1G]_[A4T]_A4.1_F4.1_T4.1 (ssRNA)
RNA: B3 RNA with A24G, U25G, A27U
B4 came in with a dissociation constant (Kd) of 1600 nM.

B5: Ib_S4_P4E.1_K4.1_C4.1_H4.1_[T3C]_A4.1_[T7A]_F4.1_T4.1 (ssRNA)
RNA: B3 RNA with A24U, U25G, U26C, U30A
In turn, B5 registered a Kd of 215 nM.

B6: Ib_S4_P4E.1_K4.1_C4.1_H4.1_[T1A]_[A4T]_A4.1_F4.1_T4.1 (ssRNA)
RNA: B3 RNA with U25G, A27U
The molecule B6 came in with a Kd of more than 2300 nM.

B7: Ib_S4_P4E.1_K4.1_C4.1_H4.1_[T3G]_[A4T]_A4.1_F4.1_T4.1 (ssRNA)
RNA: B3 RNA with A24U, U25G, U26G, A27U
The molecule B7 returned a Kd of 1280 nM.

B8: Ib_S4_P4E.1_K4.1_C4.1_H4.1_[G2A]_[A4G]_A4.1_F4.1_T4.1 (ssRNA)
RNA: B3 RNA with A24U, U25A, A27G
B8 gave a Kd of 15.2 nM.

B9: Ib_S4_P4E.1_K4.1_C4.1_H4.1_[G2C]_A4.1_[A6C]_F4.1_T4.1 (ssRNA)
RNA: B3 RNA with A24U, U25C, A29C
The molecule B9 returned a Kd of more than 2300 nM.

B10: Ib_S4_P4E.1_K4.1_C4.1_H4.1_[A4T]_A4.1_[T5A]_F4.1_T4.1 (ssRNA)
RNA: B3 RNA with A24U, U25G, A27U, U28A
The molecule B10 gave a Kd of 13.4 nM.

B11: Ib_S4_P4E.1_K4.1_C4.1_H4.1_[T1G]_[A4G]_A4.1_F4.1_T4.1 (ssRNA)
RNA: B3 RNA with A24G, U25G, A27G
B11: binding was characterised by a dissociation constant (Kd) of 40.1 nM.

B12: Ib_S4_P4E.1_K4.1_C4.1_H4.1_[T1C]_A4.1_[A6G]_F4.1_T4.1 (ssRNA)
RNA: B3 RNA with A24C, U25G, A29G
In the case of B12, the Kd turned out to be 700 nM.

B13: Ib_S4_P4E.1_K4.1_C4.1_H4.1_[G2T]_A4.1_[A6C]_F4.1_T4.1 (ssRNA)
RNA: B3 RNA with A24U, A29C
Consider B13, for which the Kd is more than 2300 nM.

B14: Ia_S4_P4E.1_K4.1_C4.1_H4.1_A4.1_F4.1_[T8C]_T4.1 (ssRNA)
RNA: B3 RNA with A24U, U25G, U31C
Take B14: the Kd stood at 9.03 nM.

B15: Ib_S4_P4E.1_K4.1_C4.1_H4.1_[T3C]_[A4C]_A4.1_F4.1_T4.1 (ssRNA)
RNA: B3 RNA with A24U, U25G, U26C, A27C
In turn, B15 yielded a Kd of 814 nM.

B16: Ib_S4_P4E.1_K4.1_C4.1_H4.1_[G2T]_A4.1_[T5C]_F4.1_T4.1 (ssRNA)
RNA: B3 RNA with A24U, U28C
Take B16: binding was characterised by a dissociation constant (Kd) of 356 nM.

B17: Ib_S4_P4E.1_K4.1_C4.1_H4.1_[T1G]_[A4C]_A4.1_F4.1_T4.1 (ssRNA)
RNA: B3 RNA with A24G, U25G, A27C
Turning to B17, the Kd is more than 2300 nM.

B18: Ib_S4_P4E.1_K4.1_C4.1_H4.1_[G2A]_[A4T]_A4.1_F4.1_T4.1 (ssRNA)
RNA: B3 RNA with A24U, U25A, A27U
For B18, binding was characterised by a dissociation constant (Kd) of 669 nM.

B19: Ib_S4_P4E.1_K4.1_C4.1_H4.1_[G2T]_A4.1_[T7A]_F4.1_T4.1 (ssRNA)
RNA: B3 RNA with A24U, U30A
In turn, B19 came in with a Kd of 1200 nM.

B20: Ib_S4_P4E.1_K4.1_C4.1_H4.1_[G2T]_[A4C]_A4.1_F4.1_T4.1 (ssRNA)
RNA: B3 RNA with A24U, A27C
B20 came in with a Kd of more than 2300 nM.

B21: Ib_S4_P4E.1_K4.1_C4.1_H4.1_[T1A]_A4.1_[A6T]_F4.1_T4.1 (ssRNA)
RNA: B3 RNA with U25G, A29U
Regarding B21, the Kd came out at 1520 nM.

B22: Ib_S4_P4E.1_K4.1_C4.1_H4.1_[T1C]_[A4T]_A4.1_F4.1_T4.1 (ssRNA)
RNA: B3 RNA with A24C, U25G, A27U
Molecule B22 showed a dissociation constant (Kd) of 615 nM.

B23: Ib_S4_P4E.1_K4.1_C4.1_H4.1_[G2C]_[T3C]_A4.1_F4.1_T4.1 (ssRNA)
RNA: B3 RNA with A24U, U25C, U26C
In turn, B23 showed a Kd of 2090 nM.

B24: Ib_S4_P4E.1_K4.1_C4.1_H4.1_[T1G]_A4.1_[T7A]_F4.1_T4.1 (ssRNA)
RNA: B3 RNA with A24G, U25G, U30A
In turn, B24 returned an equilibrium dissociation constant (Kd) of 332 nM.

B25: Ib_S4_P4E.1_K4.1_C4.1_H4.1_[T1G]_A4.1_[T5C]_F4.1_T4.1 (ssRNA)
RNA: B3 RNA with A24G, U25G, U28C
With B25, the Kd was 42.9 nM.

B26: Ib_S4_P4E.1_K4.1_C4.1_H4.1_[A4G]_A4.1_[A6G]_F4.1_T4.1 (ssRNA)
RNA: B3 RNA with A24U, U25G, A27G, A29G
B26 registered a Kd of 10.8 nM.

B27: Ib_S4_P4E.1_K4.1_C4.1_H4.1_[T1A]_A4.1_[A6C]_F4.1_T4.1 (ssRNA)
RNA: B3 RNA with U25G, A29C
B27 gave a Kd of 2270 nM.

B28: Ib_S4_P4E.1_K4.1_C4.1_H4.1_[T3C]_A4.1_[T7C]_F4.1_T4.1 (ssRNA)
RNA: B3 RNA with A24U, U25G, U26C, U30C
For B28, the Kd amounted to 48.1 nM.

B29: Ib_S4_P4E.1_K4.1_C4.1_H4.1_[G2C]_A4.1_[T7G]_F4.1_T4.1 (ssRNA)
RNA: B3 RNA with A24U, U25C, U30G
For the molecule B29, the Kd is more than 2300 nM.

B30: Ib_S4_P4E.1_K4.1_C4.1_H4.1_[G2A]_A4.1_[T7A]_F4.1_T4.1 (ssRNA)
RNA: B3 RNA with A24U, U25A, U30A
Molecule B30 showed a Kd of 75.2 nM.

B31: Ib_S4_P4E.1_K4.1_C4.1_H4.1_[A4C]_A4.1_[T5A]_F4.1_T4.1 (ssRNA)
RNA: B3 RNA with A24U, U25G, A27C, U28A
B31 had a Kd of 48.4 nM.

B32: Ib_S4_P4E.1_K4.1_C4.1_H4.1_[T1A]_[T3C]_A4.1_F4.1_T4.1 (ssRNA)
RNA: B3 RNA with U25G, U26C
B32 registered a Kd of 1880 nM.

B33: Ib_S4_P4E.1_K4.1_C4.1_H4.1_[T1A]_A4.1_[T5A]_F4.1_T4.1 (ssRNA)
RNA: B3 RNA with U25G, U28A
In turn, B33 gave a Kd of 858 nM.

B34: Ib_S4_P4E.1_K4.1_C4.1_H4.1_[G2T]_[T3C]_A4.1_F4.1_T4.1 (ssRNA)
RNA: B3 RNA with A24U, U26C
In turn, B34 showed a Kd of 2000 nM.

B35: Ib_S4_P4E.1_K4.1_C4.1_H4.1_[T1G]_A4.1_[A6T]_F4.1_T4.1 (ssRNA)
RNA: B3 RNA with A24G, U25G, A29U
Molecule B35 yielded a dissociation constant Kd of 971 nM.

B36: Ib_S4_P4E.1_K4.1_C4.1_H4.1_[T1C]_A4.1_[T5A]_F4.1_T4.1 (ssRNA)
RNA: B3 RNA with A24C, U25G, U28A
For B36, the Kd worked out at 182 nM.

B37: Ib_S4_P4E.1_K4.1_C4.1_H4.1_[T1C]_A4.1_[A6T]_F4.1_T4.1 (ssRNA)
RNA: B3 RNA with A24C, U25G, A29U
For B37, the affinity, expressed as Kd, was 133 nM.

B38: Ib_S4_P4E.1_K4.1_C4.1_H4.1_[T3C]_A4.1_[A6T]_F4.1_T4.1 (ssRNA)
RNA: B3 RNA with A24U, U25G, U26C, A29U
B38 yielded a dissociation constant (Kd) of 202 nM.

B39: Ib_S4_P4E.1_K4.1_C4.1_H4.1_[G2T]_[A4G]_A4.1_F4.1_T4.1 (ssRNA)
RNA: B3 RNA with A24U, A27G
B39 had a Kd of 7.27 nM.

B40: Ib_S4_P4E.1_K4.1_C4.1_H4.1_[T3C]_A4.1_[T7G]_F4.1_T4.1 (ssRNA)
RNA: B3 RNA with A24U, U25G, U26C, U30G
In the case of B40, the Kd was determined as 434 nM.
In the case of UCUCUUUGUCUAUAUCUCUU (ssRNA) [Ia_S1_P3E.1_K3.1_C3.1_H3.1_[A4C]_A3.1_F3.1_T3.1] it was 1170 nM.

Source of the values: article PMC9352680, “A comprehensive thermodynamic model for RNA binding by the Saccharomyces cerevisiae Pumilio protein PUF4”.
